Test results from the domain aggregation screens of Martell et al. (2025).

Assay: soluble fraction after stress (log2 fold change); higher = more stays soluble; pooled small domains, quantitative proteomics
Conditions: stress: 75 degC
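Further: 20 min heating vs room temperature control held 20 min.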

| Sequence | soluble fraction (log2) |
| --- | --- |
| HMEIITIVSDINGKRIDAWLSEKLENYSRSFIQKLIQNENVKVNNNIVKANYKLKNGDAVAVSIPEPV | 0.179 |
| HMEILNYVVSDGQSGIRIDRYLSDSNEDLSRSYIQKLLKEQKVTVQGTFVKANYKVQAGDVITVEVPDMA | -0.884 |
| HMEILPAYRDIKKEALLGNINAEFKYVNLLLEHNYIEQAFNIIEDMKTRVDDNPEFEELKSRVADAYLMY | -1.56 |
| HMEILTLEELKRLMAKAKLKQNQISGHAGVSKQQISMILAGKRNITKDVSDNLKANLAEYFP | -0.651 |
| HMEILVSTRRHEIASLLSRKKRVSFFELFPEKTKEYVVATFLAILEMAKAREVNITQEDTFDEIIVEEA | -2.18 |
| HMEIPTPAELREKRIRMGLKQADVARMAGISQSMVARIESGSVDPRVSTLAKIVEVLQAAER | -0.488 |
| HMEISLEAKMAEVREQVRGLAGINFRTLLEMQASRSNIIVTFLAILELMKIGAIQIRQEEIFGEIIIDSRD | -0.104 |
| HMEISPGDVFKQLPGIGDDLSRRVVESLGIQSLEELESAAHDGRLEQVEGFGERRVQMVRAVLTGMLS | -0.00517 |
| HMEITTEDIAAQVASWIVRLSEDLTSTDRAALQIEFEQWQQTDSRRAEIAHKMLSLIGQAEQLRKT | -0.712 |
| HMEKAISSLTLEEAKKRLEMVRSEKDASLQIYKETGSETARVTAENYGKEENSLLLHISEMSNIV | 0.425 |
| HMEKFTGELSQEEKNVLDALSHEEMHVDIIIKLTKLETSAVSSTLSLLEIKGLIKNIGGQNYIK | 0.543 |
| HMEKIIFEISEEGKRLDLYIAERTELTRTRIQQLIKDGNINVNNKKSKPSYKVEKNDFIEMIIPDE | -1.23 |
| HMEKINLIIEEDNNLRLDKVIAMQLQELSRTQIQDMINQGLVLVNQKKEKASYKTKLNDEIEITILD | -1.13 |
| HMEKKDTYTVKNGDSLWGIARTELGDGGRFREIYTLNADTIEAEAKKRGRSSSSEGHWIYPGSVLRLP | 0.304 |
| HMEKKGTVVIATVKGDIHDIGKNIVKVLLENYGFDVIDLGKDVPPEAVVEAVQQSGARLVGLSALM | -0.898 |
| HMEKKSKLVLAVLQGSDSDNTIRNLNERGFMVTVLSSTGGFLKKKSTTVMIGVEEDRLEEALDVLQKYAG | -0.549 |
| HMEKKTILIPPVITVRALAEISQIPVNRLLQELIKNGVFTSINEKIDFDTAVIIGADLNLDIQLL | -1.86 |
| HMEKLPRYILPGVPKVKSINISSALDGLVQDYSREFNISQKDIFQIALVEFFKKYGYHNAVKAVL | -2.29 |
| HMEKLSMLKIKELFRLAIEMNLSHRQIAQSLNVSHTVVNRYLKRFKKSNLSYETLLKLGDKEIISALYEH | -3.67 |
| HMEKPAQDVLASHREWMGEMIKAEHMTAKQVWRLLRERADIGVSYPTVKRYLRAHFQFGGPS | -1.57 |
| HMEKRLDYTFGLNKEQLLYLTKSIKDGDFYNVSFIDGTEKKLNRVGSTKEVHKYVNFLMTNDGIVKK | -0.389 |
| HMEKSLKELAQGVGQKVLTSGRPYHFDPMSAMERRVVHMTLMEMDGLRTESEGEGRFRHVVVFPA | -0.0884 |
| HMEKTEQMQVILDYIARYGEINNEKVQEILGVKRTRAYTILKQMVENGFVTTNGRGEEKKYYSIR | -1.25 |
| HMEKTIQIYDNIIIKDFAEKMEVSPSQVITKLIGLGVMANLNQPIDINSAVIVGKEFGFNVESM | -1.29 |
| HMEKVLPFEFERKFKTNHTAWDFFSNQAPPSYRKTVIHWILSAKQEITRISRLEKLIAASEQQKRI | -0.518 |
| HMEKYIVNQEEQGKRLDIYVVNKSSELTRTAVQRLIEQEHILVNGRKQKASYKVLEGDIITIERV | 0.753 |

| Sequence | soluble fraction (log2) |
| --- | --- |
| HMEKYTDDLEIAAEIARLETLMEGNGRVLIRPSGTEPLVRVMIEGNDIEQITKLAEDLAALLNKRF | -0.717 |
| HMELDFNSVYRQLNHEQKQAYQSIKSVLEQKISGSELDKKLKQAQQAFVAKFKENPNFEVPK | 0.608 |
| HMELDIGKKAIVIEKIDPEAGTGRVRIEGVDWGAKTADSSVIEKGETVVVKAKGAAFVTVAK | 0.0983 |
| HMELEAFPNPTDMFLSFTTKEKTPLAIYDINGKQVLYVEQITSSSKINVSKLSEGVYFAKTNQGTVKWVK | -2.35 |
| HMELEQLKSQLTGFLKANREQIFTAQNLADGLRMTDSQGYKQVVNALNASVRDGDVIDIKNGYQYNKN | 0.0444 |
| HMELEWENYSLAGEIKTTVMLYQNRRNGLPEEAKQKADALMKQLKQAVIENDAQKVEKIDDALTALLFE | -0.564 |
| HMELGYTPNNLRSVRAKYGLTQKQVAEITGLKTWHPVNRWEAPVEAAYHADMPHTKWLKLLDELSSR | -1.45 |
| HMELKYIDYDEALVVYAKTVTASGGGLSGVKDEGGIRKVLDFVQNDLYYPTFVDKLTYLVFGL | 0.168 |
| HMELLPAERRQQLVDWFKSNQAGTSQDLARMFGISVSTIRRDLDLLASEGLVKRTHGGAVSIR | -0.055 |
| HMELLPFEFARANRVLLRVNESDLVVSPDANHSAVTEILRLNNNIETIKSVDAEAFDKILSSIYSG | -0.804 |
| HMELLSVPSRLGTFFLGGEAGHIIRLYLPGDPTPRIAEHETPVLSEARRQLLEYLAGRRTAFSFPL | -0.0691 |
| HMELNEIEFENLKESIIIHLEKESLSPHELVKHIQTIHPDKVTAVIQWMLENGFIKTDAGGQLTLVSK | 0.199 |
| HMELNELTSRELMVAEQVARGASNREISEALSISERTVKAHLSAAFEKLGVRDRVQLALAMNNIPT | -0.106 |
| HMELNKNDLKIIKNISHIYPYFTPVKILQLILSKKFKTIDYNKILKSTSILTTDRSHLYYILNN | 0.0816 |
| HMELPSDEHLDDISHLARIGHKKGLQEKIIQLEQQGLASAEFIQQLKTLTNNFQFEKIIQWVDSEL | -0.055 |
| HMELRIREILESKDIKVSSLAETVGITRANMSNIVNGKSTPSLETLEKIANALGVDITELFA | -0.432 |
| HMELSAEGWVDGTGVRMRASASTDSEVVRVTEDGESLDITGVSGTWYRVTAGGVSGYIRSDYVSLEEP | -0.0699 |
| HMELSAQEIGRRLRIARENADIRQDDAAQVIGMSRPTLVSIEKGVRRVRIQEIQMLARHYGVSVNALLR | -2.2 |
| HMELSVTDRTRQIRHILKEKGRVEFTSLFEELTKPYVIVTFLSVLEMSKNNELMITQDKTFGSITLEMKG | -0.446 |
| HMELVIGESLAVELLRPGKEDGQALGYLPDGSMVVVNNGRAFVGKRVTAEIIGVIRSAGGKMVFSNLLGE | -3.36 |
| HMEMDITIQMRTLVEELNRASDAYYNGRGELMTDYEWDAKFDQLKQLESQSGVVLPDSPTHRV | -0.244 |
| HMEMELNHVARRAGRLSGFLKGELRLSTGLMNRLKWSNAILVNGKPARTNAQVEPGDRITVILD | -2.35 |
| HMEMLQENIRNLRKAKGWSQEELAIKLNVVRQTVSKWEKGLSVPDSQMLIRIADELDTTVAILLG | -0.705 |
| HMEMLQRFIFLENVSSTQVESAIKELHPNLNLKRVKLSFPGADTVLLKGPKQDLELAEELIRHLDRSE | -0.652 |
| HMEMPGGVMRTLSTIAYNQPVLQSKLVKVRGPRAYEDVHILRDMGLVSARSVGQTVELSTTPKFAEQF | -0.622 |
| HMENEIFVPKVFMDWYNKVDKSIKVFKAFNLIEKETDPRLKEWVEDNQDEFAKIWLGQLLPVV | -0.155 |

| Sequence | soluble fraction (log2) |
| --- | --- |
| HMENFIPDDPKRIEIGMSVLHQRFGKGKVMQLEGNLPDMKATVNFEGEGQKQLLLKYARLKIV | -0.99 |
| HMENIDVGQDYKVTMNTIQNLMKTGLVTGTQYKELLREMGVHSGMGAITAQQHQIALDFLNKTMDSA | ≥ 1.04 |
| HMENIIKISASYEGLRVDQFLSNYLKISRSKVQKYISEEKIFLNNVPTKTNRKVKLDDIISYNLNF | -3.01 |
| HMENITTILRSIKNEIKKNSTFVGDDFVNQARSMNQGQIKEKSIYGHGTKKEIEELRDEGVDVLNIPWIT | -0.104 |
| HMENKIIKNAAHATLKVKKDAGIEITTELIREAVILFHRIYSPNDNPNINWERIINELESHYT | -3.66 |
| HMENLFPDYTMQDYRIVRSELSSKFKVQTVPVTTATATENKIVRQEPEAGSRITEGMTVILYYSIGPE | -1.51 |
| HMENLRLSELTVERGHRLAGRTLADIASAPNSPKYLIVLIQRGQETVIPTGSTVILPGDVLILAQS | -1.7 |
| HMENMSFGTKLYTWLYGKLVGSDEIGNKYYTNINDPSDLNAKRWVIFNGEIEASKIPPHWHAWLHKSIDK | -0.918 |
| HMENMTLGQRIQALRKQHGLSQEGLGERLGVSRQAISRWEMDGAVPEVDKLIAMARLFGVSLNQLLGVE | -0.193 |
| HMENNIPANIKALIISYVNQNYPGAVIHSIERNSNGTYDVEIYYNNREYDLLFDAQGNFISGNVDDQ | -0.0333 |
| HMENNIRLSVPDTESGQRIDSYLAEQIPGLTRSAVQNLLAEQAVTIAGKAVKKNYKLLGGEDILVQLPEVR | 0.217 |
| HMENPPISVVIPPSFRGQRIDKALGSLIGDYSRSKIQQWLQSGLVQSAGEPLLPKYTVLGNEQILIAVPS | -0.13 |
| HMENQGEDMRQQVKALVNADKTNITKLATATGYSRSTISMYLAGNYKGDVEAVERRLEEYMKTQG | -0.0512 |
| HMENSYSVEDLALKAAISVDTIRYYQGLGLISPPQKNGRRAIYGNDHISRLEEIKKLAFEGFSLRQISLL | 0.111 |
| HMENTIPSVIGRTLSDGVFLLESYGYVKGNVSEEFSEMPIGVIIRQFPGAGSAAEAGTRVDLVVSKGEEIV | 0.124 |
| HMENVALYIRLKSMASVYDDVHGYNIEWIKSMIGLSIDIEKLRTVLEDVSWITKVEEDVYSFSKNAKPFE | -4.31 |
| HMENVQLRNFAIKATEAGIIKLSSDQRTFMWASNQKKLMTVPFDEHPYSAMAQFFKTDEGLAVFKSIEKKL | -1.47 |
| HMEPADALVAALVARGVSPSTARITVKQYPATRIQPQLEVFDYLVAQKDPKVSRNPPGFLLSAIRGEYA | -0.718 |
| HMEPAPELTPREQQVLARIALGMTDKAIAEELGVSHQTVRNHVARIYQKIKVHSRSQAVVWAREKGI | -1.47 |
| HMEPDEESVRLKEEILSRIDYWHTTMPYMGTRKLAAKLRTEGYAVGRKLVRTYMREMGIHAVYP | -0.103 |
| HMEPELSVDMKPLDGLLLAIKKELQAAQMYTRLARASADAEQKMVFEQLANMEKGHKARLEDIYT | -0.079 |
| HMEPESTMIEISETLTNERLDRYLATKLPNVSRGGIQRLLREGNILVNGKKAKPTQHPVAGQKIEITWPNP | -0.0291 |
| HMEPEYIGELEKRIKKLKTHTYSSIDRLMKSISKKYKITTQVLHDDFKNKHNEIPDEWVKQF | -0.126 |
| HMEPKIKQIVPNVVNYPVEDAKNVLVNSGLIVQIRGQGNIVYDQVPKGGAEVTRGTTVILDLNPPPGA | -0.0576 |
| HMEPKQIEVPNLVGISSAAARQTLSALGLHAVVKDSIWSETERIDTVLEQNPAGGALIKPEGTVYLRVSR | -0.0959 |
